The results in this text go back to patent US7407934.

First the molecules themselves.
B1: des-1Lys25,28Pro-h-Amylin (peptide, from a related filing)
peptide: CNTATCATQRLANFLVHSSNNFGPILPSTNVGSNTY
B2: des-1Lys25,28,29Pro-h-Amylin (peptide)
peptide: B1 peptide with S28P
modifications: 2,7-disulfide; made on methylbenzhydrylamine resin (C-terminal amide not printed in so many words)
B3: des-1Lys18Arg25,28Pro-h-Amylin (peptide)
peptide: B1 peptide with H17R
modifications: 2,7-disulfide; made on methylbenzhydrylamine resin (C-terminal amide not printed in so many words)
B4: des-1Lys18Arg25,28,29Pro-h-Amylin (peptide)
peptide: B1 peptide with H17R, S28P
modifications: 2,7-disulfide; made on methylbenzhydrylamine resin (C-terminal amide not printed in so many words)
B5: 25,28Pro-h-Amylin (peptide, from a related filing)
peptide: KCNTATCATQRLANFLVHSSNNFGPILPSTNVGSNTY
B6: 2,7Cyclo-[2Asp,7Lys]-h-Amylin (peptide, from a related filing)
peptide: B5 peptide with C2D, C7K, P25A, P28S
modifications: lactam 2-7; ends not checked
B7: 18Arg25,28Pro-h-Amylin (peptide)
peptide: B5 peptide with H18R
modifications: 2,7-disulfide; made on methylbenzhydrylamine resin (C-terminal amide not printed in so many words)
B8: 18Arg25,28,29Pro-h-Amylin (peptide)
peptide: B5 peptide with H18R, S29P
modifications: 2,7-disulfide; made on methylbenzhydrylamine resin (C-terminal amide not printed in so many words)
B9: 25Pro26Val28,29Pro-h-Amylin (peptide)
peptide: B5 peptide with I26V, S29P
modifications: 2,7-disulfide; made on methylbenzhydrylamine resin (C-terminal amide not printed in so many words)

Substitutions are numbered along the chain they refer to. Positions of bridges follow the written chain, without caps; N, C: chain ends. No end group written: not given here.

In the test the target is amylin receptor (rat basal forebrain membranes containing the nucleus accumbens and surrounding regions) (rat). Description: competition with 125I-Bolton-Hunter rat amylin on rat basal forebrain membranes, filtration.
As for B1, the IC50 (commonly the point on the concentration scale where inhibition reaches its midpoint) came to 0.085 nM.

B2: the IC50 is 0.014 nM.

Take B3: the IC50 is 0.082 nM. B4 showed an IC50 of 0.021 nM. Turning to B5, the IC50 came out at 0.026 nM. In the case of B6 it was 0.31 nM. In the case of B7 it was 0.032 nM; in that of B8, 0.021 nM.

With B9, the IC50 came out at 0.018 nM.
